Assay: soluble on expression in E. coli; label from the status in PepcDB or PDB records

| Sequence | soluble on expression in E. coli |
| --- | --- |
| MKSEEAYSILDIVSESEGQGVVLTRSGSICVSFELREPECYSLTPEDIDRRDGMFREAFKFLPDGTYVHKQDVFLKERYCPDIAGGSFLDRADARHFRGRLYVSHTCVMHFVLSGLKSLEKAYISSPLSYKENLHKEDLARLDEFLEGVDNAVGIIRSMRDTEIAPMSGQEMRDFTAGYTTLFDAPGAVVDIHADTELRTGKKRARCFAVCDEIFLPDGSLDSCVRDDSLPPAGSLLYHPMLERLGMYLPYNHIVNQVVFFEGNGRLRERIARNIDIYGSNSGMSRSIKVQYQKLDELQQEILEENETLVRSFFSVCVFDESEAELEKADKKIRETLNLARLGYYIPGYENLAAVHFACVPGQIHLMPRKYLFLTTLPIALCFFLQCGSFRNDSEGIYVHDRMYQVPLRKDIWDAGKKRVNARNGMVIAGTGGGKSAFTLNLTQQLIEQDYTVVVVEFGKSFSQLCRLYPDISLHVDYDGRTALGINPFDLQGEELDNGSIEMLSGVVQKYWRHMFTKDESEKEVALTRFIQDYYENVREGHNFESFYNHVTEHYPEILARKHIPKDYFSLESFSLNCGEFLPGRRYENVCKDTGTDFSGKRFIVFELTQIKQDRFLSNLVMGMIFTVIQKKLLSDRRKRGVLIFDEYGETAQMVDTATGTGIHSSVAFCYQKIRKENGAVYTIIQNPDQLPENEHTKNIIANTDMLFVLPTKEVIYQSVIDRFRLTHPGQIALMKSMRNNFSGQRPYSECFMRLGEHYATVTRLEFSREKFLAFQTEGEIWSDLEEKNRRMSMEDAIEEYIREHQ | not soluble |
| MGSDKIHHHHHHMTTLLRTRRFPPLNALRAFEAAARHLNFRLAADELGVTQGAVAQQVRHLEDVVAVQLFRRLPRGLALTREGLEYFSSVQRALQIISDATDALGERPTVLAVSTTPSFASKWLIPRLADFGRLHPDIEVRVIADERLASFRADGVDIAIRLSKPPFPAGLAAELLAPLDIFAVASPKLLDSGPPIRTPADLSTHALLHDAHDLWPEFIEKLGGKGRADPTKGPRFSQSLLAIDAAVAGQGIALTSEPLVERDIAEGRLRRVFDFSFPMSLGFYVVFPQANAHSEALQAMRRWLFAQYGKA | not soluble |
| MDKTKLYPEAPLTSSQWGELDELVIETARRQLVGRRFIDLYGPLGEGVQSVANDIYMNPEQGDMSFHGKELSLSEPARRVHLTIPLLYKDFILYWRDIEQAKQLGSPIDFSAAANAAQQCALLEDDLIFNGSTEFDVPGIMNVKGKIAHIRSDWMKSGNAFTDVVEARNKLLQLGHTGPYALVLSPELYALIHRVHEGTHVLEIEHIRELMTAGIYQTPVIKGKRGVVIDTGRQNIDLAVAADMQTAFLDTENMNYLFRVYESVVPRIKRPSAICTLEDPNESA | not soluble |
| MGSDKIHHHHHHMAKYLYGRRVKLVLLTPHESVTFDYKQTETHSMGIQFNVPFSDSSTPPTCTVTIMNLSAKHRKLFKKGYEVKLYAGYAEDGVGLLSAGVIRAISPFTSDGTNNTFSFTYREGQEYSKLLSSAEKANKKADEARKKKAKVIGKKAAAGLPKIKKHSALSFGKNTAASTIIRRIASDAGITLSKVYLAKPKKYKKGYAAHGKPITNIKAIAKACGSKVYYRRGSIVIDDLSKVKGHNEHILVTEHVKGRHGGTGLIQYPTTDSDSMAKHKTWTVTSLLRYQVSTGSVVTVENRFLKGTFRVKSGEHVCDDSAFTTAMEVYV | not soluble |
| MSLKCEYLIIGSGIAGYNALKELLQIKPNSRIIMITSDKYYPYDRPPLSKDYLKGKLEKDMLFFESDDFYKRDNLEVMLNKSVERIDANLKEAILNDGSVISFDKALISTGGRPRRLNIPGSENALYLRSLDDADRIREAASKGKNALIIGAGFIGVEVASSLITLGVKTTVVEVMPYIWNTFVDEKVSRVIQQYLESKGINFILNESVKEIQGKIATTSSGRKIEADMFLIAVGISPNVELAQRSGMQVDNGIVVNEYLETSARDIYAAGDIANIFDPREGKRKRIEHWNNAEYTGKLAARNMAGSREAYNFISSIWSDIFDLHIESAGETRNYDEYIIRGKFELERPRFSVIYLKGGIIKGYLAINRNVKEIIALNKLIQKQADVSSKRDKLADESFDLQKLLIEGHHHHHH | soluble |
| MGSDKIHHHHHHMKISVLGAGCIGGSIALKLKEKHHVTAFDRDEETMKALEENGIETVSKESDLYDTDLLVLALPMSVEERFLKETDFSGKILDVASVKTPFMEIARERGLNFTGGHPMAGNERKGKSGWDREMFDGKIFFLCSLDGKEDGMIENIVKDLGARPLWIDYRIHDEIVAAVSHVQYLISLSARYVGKPFEEYAGPGYLSNTRLSKQNMEMALDMIRYNKENILKYLENARNFLNVLYHLTEKEDFENLKKVIREVIS | not soluble |
| MLGLLRRLFDNNEREIARYYKQVVEPVNRLEAEVEKLPDLAAAYRELKEKHEKGASLDELLPMAFALTRESAKRYLGMRHFDVQLIGGAVLHEGKIAEMKTGEGKTLVATLAVALNALTGKGVHVVTVNDYLARRDAEWMGPVYRGLGLSVGVIQHASTPAERRKAYLADVTYVTNSELGFDYLRDNMAISPDQLVLRHDHPLHYAIIDEVDSILIDEARTPLIISGPAEKATDLYYKMAEIAKKLERGLPAEPGVRKEPTGDYTVEEKNRSVHLTLQGIAKAEKLLGIEGLFSPENMELAHMLIQAIRAKELYHRDRDYIVQDGQVIIVDEFTGRLMPGRRYGEGLHQAIEAKEGVRIERENQTLATITYQNFFRLYEKRAGMTGTAKTEEKEFQEIYGMDVVVVPTNRPVIRKDFPDVVYRTEKGKFYAVVEEIAEKYERGQPVLVGTISIEKSERLSQMLKEPRLYLPRLEMRLELFKKASQKQQGPEWERLRKLLERPAQLKDEDLAPFEGLIPPKGNLRTAWEGLKRAVHTLAVLRQGIPHQVLNAKHHAREAEIVAQAGRSKTVTIATNMAGRGTDIKLGGNPEYLAAALLEKEGFDRYEWKVELFIKKMVAGKEEEARALAQELGIREELLERIREIREECKQDEERVRALGGLFIIGTERHESRRIDNQLRGRAGRQGDPGGSRFYVSFDDDLMRLFASDRVIAMLDRMGFDDSEPIEHPMVTRSIERAQKRVEDRNFAIRKQLLQFDDVLSRQREVIYAQRRLILLGKDEEVKEAAIGMVEETVASLAENFLNPEVHPEDWDLEGLKATLLDTAPQLQDFPFAELRALKAEEAVERLVEAALKAYEAREAELSPPLMRAVERFVILNVVDNAWKEHLHNLDVLRQGIFLRGYGQKDPFQEYKIEATRLFNEMVAFIKSEVAKFLFRLKVEAEPVRPVREAPYVPVPEAKPEPSEVFGVERKRATPPPQPGLSRAERRRLMRQEKKRKK | soluble |
| SLAVDQTRYIFRGDKDALTITVTNNDKERTFGGQAWVDNIVEKDTRPTFVVTPSFFKVKPNGQQTLRIIMASDHLPKDKESVYWLNLQDIPPALEGSGIAVALRTKLKLFYRPKALLEGRKGAEEGISLQSRPDGRTMLVNTTPYIFAIGSLLDGNGKKIATDNGTTQKLLMFMPGDEVQVKGNVVKVDSLNDYGELQTWTINKKKPAAPEAAKAEKADTAEQK | soluble |
| SASLDRVKVLVLGDSGVGKSSLVHLLCQNQVLGNPSWTVGCSVDVRVHDYREGTPEEKAFYIELWDVGGSVGSASSVKSTRAVFYNSVNGIILVHDLTNKKSSQNLYRWSLEALSKDSSPTGIIVSNGDYDREQFAENAVPLLLIGTKFDQIPENKRNDVLTRTAFLSEDFNAEEINLDCTNPRYLAAGSSNAVKLSRFFDKVIEKRYFTRDPSQMQSFTDRRRFNFKSLHSD | soluble |
| MGSDKIHHHHHHMDKLIAFLKDKKITEVECVISDMTGIARGKIAPVDKFVSEKGMRLPESVLLQTVTGDFIDDEVYYQLLDDADIDFVCVPDENAVFMLPWTVEATAQVIHDCYDRMGNPIELSPRNVLKKVLKLYEDKGWEPVIAPEMEFYLTKRSDDHDLPLKPPIGRSGRPEAGRQSFSIDAANEYDPLFEDMYDWCEIQGLDIDTLIHEDGPAQMEINFSHGNALSLADQVFIFKRTLKEAALKHDVCATFMAKPVTDEPGSAMHIHQSVLDIKTGKNIFTKDDGTQSKLFLSYIAGLQQYIPELLPLMAPSANSFRRFLPGTSAPVNLEWGVENRTCGLRIPESSPQNRRIENRIPGADANCYLAIAASLLCGYIGMVDDLKPSTPVTGKSNESRTNNENCLPLTLEEALVAMQSSDACIEYLGQSFTTGFVAVKQAELENFRRVVSSWEREFLLLTV | not soluble |
| MGSDKIHHHHHHMSNDKEIIKRAVERHDIDSSIFQGRYVNFTQGKYTDEFIYGRYQMFEEIDRILSSLPKGAKVLDLGCGTGHFSTYIKTLCYEVTGLDPSTKMLDYARQNFPEITFVEGYSNALPFEDNTFDLIISIEVLRYLDTKIVLESYEEIYRTLKPNGKMFITHVNTLATEGYYIFYHLKKLAHSFKGKEYHSAYFTSANKEERTLKKIGFKNISCIGRMFATVRTGYKFGKTIGKTYAKLLEKFNPKQRFEKSHFKNFTGHLIVIAEK | not soluble |
| MGSDKIHHHHHHMWIWQQADWPKFHWNTSSIDALLRQVYFNQGQLLGKQMLSHDDSLLTSDAALDTLLANIIHSSAIEGEKLNAASVRSSLAKKLGVTEDKPYPTTAQTDGLADIMLDALKNLETELTLERILGWHQQLFPQGYTLFNPVIGGTLRGDTPMQVVSGRIDKPTVHFEAPSRATLDAELSQFIEWFNASRQDLGLDPLIRAAITHLWFVTLHPLDDGNGRITRLLTDLALAQAEKRSIRFYAMSVSILARRQAYYDILESTQRGDVDITPWLVWFFETLNDCLLNAMADVSRTLSKTQYWQSVDQSLLSQEQAKVLNRMLDGDFELGINSSQYQKVAKVSRATATRHLAQMVEQRFLVKADAGGRSTRYLLPSGK | not soluble |
| MPAGFTHFRLVTRNNMKSLTTETALDILIAWLQDNIDCGSGIIFDNDEDKTDSAALLPCIEQAREDVRTLRHLQLLHQNR | soluble |
| MGSDKIHHHHHHMSTTPTTRLILETLLPHLKVAAAYAHFLQPKIAALPAKGEGNNFFSAALTDADVAIQNLVEVVLLGTFPDIRFYGEEYASSNNTKYFRATELGSKGDYLVTLDPIDGTKFYMDGHSNYQIILSILNSDDFEAVIAISPAQNIYFYALRGEGAFKGTLEMSLEACAPLHITSAKPAILLGWAMNSIGHLLKDRYQVIDIAADYSSDIQIPNLNGILTGDLSGAVIKSGKFIDVAALAFIVKEAGWIVTTLDGSTLPPLHTCQNYSLPGLVIATSKSVHQDLLKAVQSLAV | not soluble |
| MGSDKIHHHHHHMDKMKAITFFDLDGTLLDGTSQITPEITAAVAALKDNQILPLIATGRTLCEIQPIMKASGIDSAIVMNGQFIHYEGKTIYSDEFTTEECVSLHEHVKQRGHELAFYNERRIFCTGHTGTVKQAYDYIHSAVPEIDPTGYENDAVNMMLVLSQHGDDDEYYYERFPELTFYRNGPFSIDIVRKGVSKGSGVKNLFNTLGLNGIPTYAFGDGINDLALFEACDYGIAMGNAREELKEKATFISTKNTENGIVNGLKKFDLL | not soluble |
| MLSFTSRLKKDLFIKAQSLVPQHQLSRVVGKVAESENILIKAAVIQAFKTKYGIDLSIAEQADALKYKSFNEFFTRALKEGVRVVDSATGSIVSPADGAISQLGTIHDGEVFQAKGQSFSVEKLIGDPQLAQPFKQGQFATVYLSPRDYHRVHMPFTGTLTETLYIPGELFSVNQVTAENIPGLFARNERMVCLFDTELGRMAVVLVGAMIVAGIETVVTGKVKPTGRLELNHHDVTLQKGDELGRFYLGSTAIILFEKDKMVWDQQFKANSIVVMGEKLGQSTNPLEHHHHHH | not soluble |
